From publication PMC5350145, “Either fadD1 or fadD2, Which Encode acyl-CoA Synthetase, Is Essential for the Survival of Haemophilus parasuis SC096” (Frontiers in Cellular and Infection Microbiology, 2017)

Experiments:
Assay in all cases: DTNB free-thiol (CoA) assay, Hanes-Woolf
FadD1 = biological target: T1, FadD1 (Glaesserella parasuis, UniProt B8F3K7); type: biochemical; conditions: 5 mM ATP, 0.5 mM CoA, 10 mM MgCl2, 0.1% Triton X-100, pH 7.2, 37°C; read-out: Kinetic parameters^a / Km^c
T1 construct: gene lcfA; full length, His-tagged in pET28b (NdeI/HindIII), no tag removal described; E. coli BL21 host; locus tag is that of strain SH0165
T1 sequence (B8F3K7 1-566): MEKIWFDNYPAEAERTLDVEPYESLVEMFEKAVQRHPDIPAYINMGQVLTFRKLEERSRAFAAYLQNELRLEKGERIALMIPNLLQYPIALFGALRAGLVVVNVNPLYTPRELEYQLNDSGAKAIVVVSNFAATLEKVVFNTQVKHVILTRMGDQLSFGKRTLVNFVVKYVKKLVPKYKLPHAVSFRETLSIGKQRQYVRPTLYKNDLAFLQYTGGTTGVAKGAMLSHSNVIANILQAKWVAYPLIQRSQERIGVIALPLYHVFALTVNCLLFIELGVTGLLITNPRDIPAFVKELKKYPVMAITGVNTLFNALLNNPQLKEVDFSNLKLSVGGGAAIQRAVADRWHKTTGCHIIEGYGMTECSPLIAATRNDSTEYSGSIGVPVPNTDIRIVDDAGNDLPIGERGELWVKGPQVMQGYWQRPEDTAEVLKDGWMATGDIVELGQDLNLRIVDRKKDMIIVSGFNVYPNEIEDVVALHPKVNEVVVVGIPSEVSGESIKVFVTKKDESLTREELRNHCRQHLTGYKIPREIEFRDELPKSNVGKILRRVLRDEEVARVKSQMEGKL
Excerpt: (§1) DTNB free-thiol (CoA) assay, Hanes-Woolf on FadD1

[1] = substrate: CCCCCCCCCCCCCC(=O)O; type: biochemical, Glaesserella parasuis; conditions: 5 mM ATP, 0.5 mM CoA, 10 mM MgCl2, 0.1% Triton X-100, pH 7.2, 37°C
Excerpt: (§2) DTNB free-thiol (CoA) assay, Hanes-Woolf on FadD2

[2] = substrate: CCCCCCCCCCCCCCCC(=O)O; type: biochemical, Glaesserella parasuis; conditions: 5 mM ATP, 0.5 mM CoA, 10 mM MgCl2, 0.1% Triton X-100, pH 7.2, 37°C
Excerpt: as §2

[3] = substrate: CCCCCCCCCCCCCC(=O)O; type: biochemical, Glaesserella parasuis; conditions: 5 mM ATP, 0.5 mM CoA, 10 mM MgCl2, 0.1% Triton X-100, pH 7.2, 37°C; remark: listed apart in the source
Excerpt: as §1

[4] = substrate: CCCCCCCCCCCCCCCC(=O)O; type: biochemical, Glaesserella parasuis; conditions: 5 mM ATP, 0.5 mM CoA, 10 mM MgCl2, 0.1% Triton X-100, pH 7.2, 37°C; remark: listed apart in the source
Excerpt: as §1

CCCCCCCC/C=C\CCCCCCCC(=O)O [C18:1]
Km (FadD1): 15.6 µM

B1: FadD2 (Glaesserella parasuis SH0165) (protein)
chain: MASLDFHFVNRFRLQAKKWLNRTALRFREQAQWQEMSWQTFQQEIDRFSYALIAQHIDIQDKIGIFANNMPRWTIADFGAMQARAVAVPIYATNTAKQVEYIVNDADIKILFVGDQEQLDQVCQIANNCPQLMKIVAMKANMDLRDLPNACYWEDFLDVVPNEAEFEKRLNSKQLSDLFTLIYTSGTTGEPKGVMLDYANLAHQLNAHDLALNVNEDDVSLSFLPLSHIFERAWVAYVFHRGATNCYLEDTNHVRDALTTLKPTVMCAVPRFYEKIYTAVWDKVEKAPAHRRALFNWAIRVGEKHYQTEQPSQWLRLQYALADKLVLTKLRALLGGRIKMMPCGGAKLEASIGSFFHSIGINIKLGYGMTETTATVSCWQDKGFNPNSIGTLMPNAEVKIGEENEILVRGGMVMRGYYKKPEETAKAFTEDGFLRTGDVGEMDSCGNLFITDRLKELMKTLNGKYIAPQYIEGKIGKDKFIEQIAVIADAKKYVSALIVPCFDSLEEYAKQLNIKYQDRIELIKHSDIIQMFERRIHELQKELPSFEQVKKFTLLPQAFSTAMEEITPTLKLRRKVIMQRYREQIEEMYNERSLT
notes: full length, His-tagged in pET28b (NdeI/HindIII), no tag removal described; E. coli BL21 host; locus tag is that of strain SH0165
Km [1]: 173.40 µM
kcat [1]: 0.002 s⁻¹
kcat/Km [1]: 10 M⁻¹ s⁻¹
Km [2]: 128.30 µM
kcat [2]: 0.020 s⁻¹
kcat/Km [2]: 160 M⁻¹ s⁻¹

B2: FadD1 (Glaesserella parasuis SH0165) (protein)
chain: MEKIWFDNYPAEAERTLDVEPYESLVEMFEKAVQRHPDIPAYINMGQVLTFRKLEERSRAFAAYLQNELRLEKGERIALMIPNLLQYPIALFGALRAGLVVVNVNPLYTPRELEYQLNDSGAKAIVVVSNFAATLEKVVFNTQVKHVILTRMGDQLSFGKRTLVNFVVKYVKKLVPKYKLPHAVSFRETLSIGKQRQYVRPTLYKNDLAFLQYTGGTTGVAKGAMLSHSNVIANILQAKWVAYPLIQRSQERIGVIALPLYHVFALTVNCLLFIELGVTGLLITNPRDIPAFVKELKKYPVMAITGVNTLFNALLNNPQLKEVDFSNLKLSVGGGAAIQRAVADRWHKTTGCHIIEGYGMTECSPLIAATRNDSTEYSGSIGVPVPNTDIRIVDDAGNDLPIGERGELWVKGPQVMQGYWQRPEDTAEVLKDGWMATGDIVELGQDLNLRIVDRKKDMIIVSGFNVYPNEIEDVVALHPKVNEVVVVGIPSEVSGESIKVFVTKKDESLTREELRNHCRQHLTGYKIPREIEFRDELPKSNVGKILRRVLRDEEVARVKSQMEGKL
notes: as for B1
Km [3]: 41.48 µM
kcat [3]: 0.083 s⁻¹
kcat/Km [3]: 2010 M⁻¹ s⁻¹
Km [4]: 39.90 µM
kcat [4]: 0.098 s⁻¹
kcat/Km [4]: 2450 M⁻¹ s⁻¹
